Data on one molecule can be found in patent publication US20250283116, “USE OF ISCB IN GENOME EDITING” (Cornell University, published 2025).

For this data set, the target named is T1, OgeuIscB wild-type (human gut metagenome).
T1 chain: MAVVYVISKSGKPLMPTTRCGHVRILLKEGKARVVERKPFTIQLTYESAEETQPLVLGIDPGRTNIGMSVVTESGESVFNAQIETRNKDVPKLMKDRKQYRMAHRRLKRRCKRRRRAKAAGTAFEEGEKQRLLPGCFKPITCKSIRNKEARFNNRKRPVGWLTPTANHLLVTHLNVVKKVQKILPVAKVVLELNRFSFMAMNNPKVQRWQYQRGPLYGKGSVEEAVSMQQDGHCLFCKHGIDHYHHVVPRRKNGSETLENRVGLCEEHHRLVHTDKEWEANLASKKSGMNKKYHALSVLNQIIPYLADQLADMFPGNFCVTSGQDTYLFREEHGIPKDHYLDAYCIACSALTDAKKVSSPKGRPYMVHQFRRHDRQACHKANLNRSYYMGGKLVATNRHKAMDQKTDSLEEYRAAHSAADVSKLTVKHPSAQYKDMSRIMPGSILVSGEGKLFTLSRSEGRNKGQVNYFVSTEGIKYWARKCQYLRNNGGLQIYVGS
In words: structure; cryo-EM of IscB-ωRNA/target DNA at 2.78 A; TAM 5'-CTAGAA-3' (ideal NWRRNA). As to conditions: label: 5' 6-FAM on non-target strand; partially mismatched bubble in protospacer. As for the experimental part:
IscB was incubated for 15 minutes at 37° C. with the target DNA in cleavage buffer. DNA was supplied at a 3 fold molar excess to IscB (0.5 mg/mL final concentration). 3.5 μL of were applied to a Quantifoil holey carbon grid (1.2/1.3, 200 mesh) which had been glow-discharged with 20 mA at 0.39 mBar for 30 seconds (PELCO easiGlow). Grids were blotted with Vitrobot blotting paper (Electron Microscopy Sciences) for 6.5 s at 4° C., 100% humidity, and plunge-frozen in liquid ethane using a Mark IV FEI/Thermo Fisher Vitrobot. Data were collected on a Krios G3i Cryo Transmission Electron Microscope (Thermo Scientific) with a Ceta 16M CMOS camera 300 kV, Gatan K3 direct electron detector. The total exposure time of each movie stack led to a total accumulated dose of 50 electrons per Å2 which fractionated into 50 frames. Dose-fractionated super-resolution movie stacks collected from the Gatan K3 direct electron detector were binned to a pixel size of 1.1 Å. The defocus value was set between −1.0 μm to −2.5 μm.

B1: OgeuIscB ωRNA with 16-nt guide ; cryo-EM target DNA (ssRNA ; dsDNA)
RNA: AAAAGAGUGAACGAGAGGCUCUUCCAACUUUAUGGUUGCGACCGUAGGUUGAAAGAGCACAGGCUGAGACAUUCGUAAGGCCGAAAGACCGGACGCACCCUGGGAUUUCCCCAGUCCCCGGAACUGCAUAGCGGAUGCCAGUUGAUGGAGCAAUCUAUCAGAUAAGCCAGGGGGAACAAUCACCUCUCUGUAUCAGAGAGAGUUUUACAAAAGGAGGAACGG
DNA 1: CGCCCCACGAGGGTACGGCAAAAGAGTTTTTTTTACTAGAAGTCGAGGTCAGCCCGTGGC
DNA 2: GCCACGGGCTGACCTCGACTTCTAGTCTCGTTCACTCTTTTGCCGTACCCTCGTGGGGCG
modifications: phosphorothioate at several positions of both strands (after G25-T31 region as marked by *)
For the molecule B1, the binding result is recorded as “binds”.
